Test results: patent publication US20250361296A1 (BIOCYTOGEN PHARMACEUTICALS BEIJING, published 2025)

Assays:
[1] = biological target: T1, human SIGLEC15 on CHO-S-hSIGLEC15 cells (human, UniProt Q6ZMC9 20-328); assay: flow cytometry, CHO-S cells expressing the target
T1 sequence: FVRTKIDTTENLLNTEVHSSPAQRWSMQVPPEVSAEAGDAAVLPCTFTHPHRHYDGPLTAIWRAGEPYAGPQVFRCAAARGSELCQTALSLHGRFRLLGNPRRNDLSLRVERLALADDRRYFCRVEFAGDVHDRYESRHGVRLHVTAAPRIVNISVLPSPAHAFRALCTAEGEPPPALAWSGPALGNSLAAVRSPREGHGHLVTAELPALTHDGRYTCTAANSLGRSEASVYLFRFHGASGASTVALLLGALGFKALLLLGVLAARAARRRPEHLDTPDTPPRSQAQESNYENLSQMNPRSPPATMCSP
Experimental: (§1) CHO-S-hSIGLEC15 cells, CHO-S-mSIGLEC15 cells, CHO-S-fasSIGLEC15 cells or CHO-S-dSIGLEC15 cells were transferred to a 96-well plate at a density of 5×10⁴ cells/well respectively. Serially diluted sample anti-SIGLEC15 antibodies were added to the 96-well plate, and incubated at 4° C. for 30 min. Then, the cells were incubated with the secondary antibody anti-hIgG-Fc-Alex Flour 647 (RL1-H) (Jackson ImmunoResearch Laboratories, Inc., 109-606-170) at 4° C. in the dark for 15 minutes before flow cytometry analysis.

[2] = biological target: T2, mouse SIGLEC15 on CHO-S-mSIGLEC15 cells (mouse); assay: flow cytometry, CHO-S cells expressing the target
T2 chain: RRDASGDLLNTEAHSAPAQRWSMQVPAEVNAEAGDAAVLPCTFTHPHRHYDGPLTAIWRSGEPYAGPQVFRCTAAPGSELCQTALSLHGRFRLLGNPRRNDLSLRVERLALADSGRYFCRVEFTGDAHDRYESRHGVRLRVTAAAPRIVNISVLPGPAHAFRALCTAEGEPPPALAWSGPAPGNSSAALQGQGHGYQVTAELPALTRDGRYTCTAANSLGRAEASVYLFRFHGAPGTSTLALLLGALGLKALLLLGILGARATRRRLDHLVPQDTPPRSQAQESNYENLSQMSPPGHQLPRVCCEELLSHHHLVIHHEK
Experimental: as §1

[3] = biological target: T3, dog SIGLEC15 on CHO-S-dSIGLEC15 cells (dog); assay: flow cytometry, CHO-S cells expressing the target
T3 chain: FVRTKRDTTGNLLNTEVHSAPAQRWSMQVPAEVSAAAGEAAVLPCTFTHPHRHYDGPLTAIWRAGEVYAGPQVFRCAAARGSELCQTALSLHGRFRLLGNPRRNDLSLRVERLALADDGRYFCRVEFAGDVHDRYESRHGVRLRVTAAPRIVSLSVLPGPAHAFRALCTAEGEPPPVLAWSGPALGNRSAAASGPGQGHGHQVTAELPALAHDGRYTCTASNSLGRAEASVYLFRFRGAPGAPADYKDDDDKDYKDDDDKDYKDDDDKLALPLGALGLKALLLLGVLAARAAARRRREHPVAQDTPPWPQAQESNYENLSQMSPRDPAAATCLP
Experimental: as §1

[4] = biological target: T4, hSIGLEC15 protein captured in the epitope analysis of Example 4 (human, UniProt Q6ZMC9 20-263, limits assumed); assay: BLI pairwise binning on captured hSIGLEC15, 200 nM each antibody; competitor 10A7
T4 sequence: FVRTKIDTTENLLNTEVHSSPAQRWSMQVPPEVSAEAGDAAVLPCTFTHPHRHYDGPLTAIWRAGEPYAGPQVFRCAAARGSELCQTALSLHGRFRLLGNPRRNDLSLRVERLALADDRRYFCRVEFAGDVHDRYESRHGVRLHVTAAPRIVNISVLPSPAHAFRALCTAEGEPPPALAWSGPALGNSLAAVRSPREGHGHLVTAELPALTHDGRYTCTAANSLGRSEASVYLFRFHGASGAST
Experimental: (§2) Relative positions of target protein epitope between a pair of purified anti-SIGLEC15 antibodies were analyzed by Biolayer Interferometry (BLI) using ForteBio Octet system at 30° C. A total of 4 purified antibodies were used: 5G12, 10A7, 10C9 and 23F4.
(§3) 1×HBS-EP+ buffer (10 mM 4-(2-hydroxyethyl)-1-piperazineethanesulfonic acid (HEPES), 150 mM NaCl, 3 mM ethylenediaminetetraacetic acid (EDTA) and 0.05% P20, pH7.4) diluted from HBS-EP+ buffer (10×) was used as the running buffer throughout the experiment. About 100 RU of hSIGLEC15 protein was captured at a flow rate of 10 μL/min, and 200 nM of antibody was injected at a flow rate of 30 μL/min to bind the ligand. Another antibody was injected under the same conditions to determine whether the binding of different antibodies interfered with each other. The binding time was 300 s for each antibody.
(§4) The binding value of each antibody was obtained using Data Analysis HT 12.0. To quantify the interference of one antibody binding to another, a binding ratio was calculated to compare each pair of antibodies. The binding ratio is defined as the binding value of the second antibody (analyte 2), divided by the binding value of the first antibody (analyte 1). […] In general, antibody pairs that interfere with each other have the same or overlapping epitopes.

[5] = biological target: T4, hSIGLEC15 protein captured in the …; assay: BLI pairwise binning on captured hSIGLEC15, 200 nM each antibody; competitor 23F4
Experimental: as §2, §3, §4

[6] = biological target: T4, hSIGLEC15 protein captured in the …; assay: BLI pairwise binning on captured hSIGLEC15, 200 nM each antibody; competitor 5G12
Experimental: as §2, §3, §4

Binder | Percentage of Positive Cells [1] [%] | Percentage of Positive Cells [2] [%] | Percentage of Positive Cells [3] [%] | binding ratio [4] | binding ratio [5] | binding ratio [6]
anti-SIGLEC15 antibody 10A7 (antibody, human IgG1, V domains shown) VH: EVQLVQSGGGLVQPGGSLRLSCAASGFTFSNYEMNWVRQAPGKGLEWISYISNSGSTIYYADSVKGRFTISRDDAKNSLYLQMNSLRAEDTAVYYCAREDYDSSGYYWFDPWGQGTPVTVSS VL: DIQLTQSPSSVSASVGDRVTITCRASQGISSWLAWYQQKPGKAPKLLIYAASSLQSGVPSRFSGSGSGTDFTLTINSLQPEDFATYYCQQTNSFPLTFGGGTKVEIK | 17.9 | 38.5 | 22.8 | 0.14 | 0.43 | 0.2
anti-SIGLEC15 antibody 23F4 (antibody, human IgG1, V domains shown) VH: QVQLQQWGAGLLKPSETLSLTCAVYGGSFSGYFWSWIRQPPGKGLEWIGEINHSGSTNYNPSLKSRVTLSVDTSKNQFSLKLSSVTAADTAVYYCAREGDSSSWGNWFDPWGQGTLVTVSS VL: EIVLTQSPGTLSLSPGERATLSCRASQSVSSSYLAWYQQKPGQAPRFLIYGASSRATGIPDRFSGSGSGTDFTLTISRLEPEDFAVYYCQQFGNSPLTFGGGTKVEIK | 25.6 | 40.5 | 24.6 | 0.18 | 0.07 | 0.48
anti-SIGLEC15 antibody 10C9 (antibody, human IgG1, V domains shown) VH: QVQLVQSGAEVKKPGATVKVSCKASGYTFTNYGFSWVRQAPGQGLEWMGWINTYNDNTNYAQKFQGRVTMTTDTSTSTAYMELRSLRSDDTAVYYCARDGLWFGELPHYFDYWGQGTLVTVSS VL: DIQLTQSPLSSPVTLGQPASISCRSSQSLVNSDGETFLSWLQQRPGQPPRLLIYKISNRFSGVPDRFSGSGAGTDFTLKISRVEAEDVGVYYCMQATQFPHTFGQGTKLEIK | 16.3 | 29.3 | 37.3 | 0.11 | 0.72 | 0.23
